Literature values as cited in patent US5223421A, “Identification of methionine Nα-acetyltransferase” (The General Hospital Corporation, priority 1990, dated 1993).

Biological target: T1, yeast methionine acetyltransferase (M-N^α AT) (Saccharomyces cerevisiae, UniProt Q06504)
T1 construct: a crude yeast homogenate from the aaa1 mutant strain; endogenous in cells; host or cells: Saccharomyces cerevisiae strain T3A-a (aaa1), crude lysate
T1 sequence (Q06504 1-195): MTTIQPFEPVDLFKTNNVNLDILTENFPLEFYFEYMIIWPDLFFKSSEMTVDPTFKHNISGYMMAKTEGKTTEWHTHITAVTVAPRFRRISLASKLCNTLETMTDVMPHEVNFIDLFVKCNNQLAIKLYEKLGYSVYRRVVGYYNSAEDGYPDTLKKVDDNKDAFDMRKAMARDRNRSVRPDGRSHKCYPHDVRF
T1 sequence (Q12387 2-796 partner limits assumed): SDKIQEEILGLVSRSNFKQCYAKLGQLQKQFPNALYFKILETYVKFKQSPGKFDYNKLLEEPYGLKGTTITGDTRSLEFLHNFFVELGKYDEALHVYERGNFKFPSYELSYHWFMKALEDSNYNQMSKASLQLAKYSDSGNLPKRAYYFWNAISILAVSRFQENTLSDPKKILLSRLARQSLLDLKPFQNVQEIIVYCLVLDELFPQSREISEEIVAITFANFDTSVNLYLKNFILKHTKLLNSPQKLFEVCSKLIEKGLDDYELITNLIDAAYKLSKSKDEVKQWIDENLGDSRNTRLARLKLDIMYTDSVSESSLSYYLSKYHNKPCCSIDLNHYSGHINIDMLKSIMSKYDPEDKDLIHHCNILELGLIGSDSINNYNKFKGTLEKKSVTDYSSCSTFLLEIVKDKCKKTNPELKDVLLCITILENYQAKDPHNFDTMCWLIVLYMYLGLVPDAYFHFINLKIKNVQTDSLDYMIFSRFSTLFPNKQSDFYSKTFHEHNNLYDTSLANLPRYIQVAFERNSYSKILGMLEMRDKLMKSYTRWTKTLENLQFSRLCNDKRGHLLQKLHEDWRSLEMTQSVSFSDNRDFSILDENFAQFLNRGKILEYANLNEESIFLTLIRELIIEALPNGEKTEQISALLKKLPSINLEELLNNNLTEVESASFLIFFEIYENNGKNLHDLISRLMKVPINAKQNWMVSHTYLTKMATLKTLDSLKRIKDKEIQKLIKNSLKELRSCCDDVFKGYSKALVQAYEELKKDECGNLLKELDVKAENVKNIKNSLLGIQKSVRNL
Conditions: Lee et al., J. Biol. Chem. 265:3603-3606 (1990); cited from earlier work

In the case of “24 residue synthetic peptide mimicking the NH2 terminus of yeast actin: 24 residue synthetic peptide mimicking the NH2 terminus of yeast actin (MDSEVAALVIDNGSGMCKAGFAGD; UniProt P60010 1-24, looked up, fragment)”, the “N^α -acetylation by yeast M-N^α AT” value is given as “will acetylate”.
